Test results reported in patent US20220177846A1.

What was measured:
Assay in all cases: cell-based or functional assay
[1] = molecular target: hCav1.2 (human) (UniProt Q13936)
[2] = molecular target: hKCNQ1/minK (human) (UniProt P51787)
[3] = molecular target: hKV11.1/hERG (human) (UniProt Q12809)
[4] = molecular target: hNav1.5 (human) (UniProt Q14524)
Chain of hNav1.5 (human) (Q14524 whole entry): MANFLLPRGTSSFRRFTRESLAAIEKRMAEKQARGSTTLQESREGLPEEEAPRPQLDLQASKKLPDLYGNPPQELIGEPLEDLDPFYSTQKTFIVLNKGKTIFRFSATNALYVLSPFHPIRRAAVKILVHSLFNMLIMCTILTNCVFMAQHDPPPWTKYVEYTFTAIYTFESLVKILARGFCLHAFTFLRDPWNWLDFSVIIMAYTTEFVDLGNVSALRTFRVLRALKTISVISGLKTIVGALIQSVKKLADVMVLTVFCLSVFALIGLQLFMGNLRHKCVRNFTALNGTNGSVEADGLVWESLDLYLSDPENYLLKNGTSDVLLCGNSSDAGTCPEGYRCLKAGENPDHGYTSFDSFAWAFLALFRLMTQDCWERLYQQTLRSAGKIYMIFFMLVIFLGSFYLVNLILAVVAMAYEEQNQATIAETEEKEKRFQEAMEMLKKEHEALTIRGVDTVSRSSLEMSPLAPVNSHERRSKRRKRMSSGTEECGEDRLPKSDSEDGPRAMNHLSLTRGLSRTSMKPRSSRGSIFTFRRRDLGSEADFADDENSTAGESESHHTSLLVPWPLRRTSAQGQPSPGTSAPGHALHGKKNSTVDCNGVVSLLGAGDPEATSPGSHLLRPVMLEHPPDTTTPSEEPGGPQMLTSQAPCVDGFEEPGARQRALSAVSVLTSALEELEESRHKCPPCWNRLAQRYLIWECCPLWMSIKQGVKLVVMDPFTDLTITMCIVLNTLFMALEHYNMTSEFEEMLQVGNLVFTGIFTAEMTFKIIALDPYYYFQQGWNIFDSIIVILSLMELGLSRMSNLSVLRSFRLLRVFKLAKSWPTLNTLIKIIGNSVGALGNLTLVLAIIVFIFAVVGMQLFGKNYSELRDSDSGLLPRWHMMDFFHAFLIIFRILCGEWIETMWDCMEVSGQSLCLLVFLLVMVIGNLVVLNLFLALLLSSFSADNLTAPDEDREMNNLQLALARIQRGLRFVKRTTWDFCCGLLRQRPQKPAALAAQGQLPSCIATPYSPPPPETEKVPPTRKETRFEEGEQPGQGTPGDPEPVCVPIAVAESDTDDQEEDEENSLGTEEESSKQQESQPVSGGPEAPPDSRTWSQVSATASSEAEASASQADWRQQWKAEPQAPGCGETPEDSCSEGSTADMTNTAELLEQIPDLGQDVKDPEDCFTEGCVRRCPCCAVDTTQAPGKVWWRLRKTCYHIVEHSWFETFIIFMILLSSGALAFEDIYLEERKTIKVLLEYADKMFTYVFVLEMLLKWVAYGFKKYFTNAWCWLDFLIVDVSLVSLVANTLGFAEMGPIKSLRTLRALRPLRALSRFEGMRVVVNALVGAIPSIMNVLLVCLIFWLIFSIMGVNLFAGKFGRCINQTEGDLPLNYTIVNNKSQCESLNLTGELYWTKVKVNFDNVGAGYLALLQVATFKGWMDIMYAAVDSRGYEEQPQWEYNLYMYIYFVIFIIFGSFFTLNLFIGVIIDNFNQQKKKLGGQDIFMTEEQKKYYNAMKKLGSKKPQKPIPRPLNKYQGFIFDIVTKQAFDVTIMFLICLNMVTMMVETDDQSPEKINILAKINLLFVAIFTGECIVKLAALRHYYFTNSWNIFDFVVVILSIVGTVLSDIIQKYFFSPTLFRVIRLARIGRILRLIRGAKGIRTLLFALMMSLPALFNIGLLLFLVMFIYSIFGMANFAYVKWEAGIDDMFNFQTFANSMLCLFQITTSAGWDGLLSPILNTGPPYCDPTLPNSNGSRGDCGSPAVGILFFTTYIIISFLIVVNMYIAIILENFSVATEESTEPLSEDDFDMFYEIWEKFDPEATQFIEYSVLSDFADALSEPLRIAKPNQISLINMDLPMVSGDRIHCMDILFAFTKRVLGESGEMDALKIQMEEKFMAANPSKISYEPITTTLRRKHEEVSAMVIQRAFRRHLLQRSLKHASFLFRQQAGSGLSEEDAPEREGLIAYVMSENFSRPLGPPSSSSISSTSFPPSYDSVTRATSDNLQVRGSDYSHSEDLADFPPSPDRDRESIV

Chain of hKV11.1/hERG (human) (Q12809 whole entry): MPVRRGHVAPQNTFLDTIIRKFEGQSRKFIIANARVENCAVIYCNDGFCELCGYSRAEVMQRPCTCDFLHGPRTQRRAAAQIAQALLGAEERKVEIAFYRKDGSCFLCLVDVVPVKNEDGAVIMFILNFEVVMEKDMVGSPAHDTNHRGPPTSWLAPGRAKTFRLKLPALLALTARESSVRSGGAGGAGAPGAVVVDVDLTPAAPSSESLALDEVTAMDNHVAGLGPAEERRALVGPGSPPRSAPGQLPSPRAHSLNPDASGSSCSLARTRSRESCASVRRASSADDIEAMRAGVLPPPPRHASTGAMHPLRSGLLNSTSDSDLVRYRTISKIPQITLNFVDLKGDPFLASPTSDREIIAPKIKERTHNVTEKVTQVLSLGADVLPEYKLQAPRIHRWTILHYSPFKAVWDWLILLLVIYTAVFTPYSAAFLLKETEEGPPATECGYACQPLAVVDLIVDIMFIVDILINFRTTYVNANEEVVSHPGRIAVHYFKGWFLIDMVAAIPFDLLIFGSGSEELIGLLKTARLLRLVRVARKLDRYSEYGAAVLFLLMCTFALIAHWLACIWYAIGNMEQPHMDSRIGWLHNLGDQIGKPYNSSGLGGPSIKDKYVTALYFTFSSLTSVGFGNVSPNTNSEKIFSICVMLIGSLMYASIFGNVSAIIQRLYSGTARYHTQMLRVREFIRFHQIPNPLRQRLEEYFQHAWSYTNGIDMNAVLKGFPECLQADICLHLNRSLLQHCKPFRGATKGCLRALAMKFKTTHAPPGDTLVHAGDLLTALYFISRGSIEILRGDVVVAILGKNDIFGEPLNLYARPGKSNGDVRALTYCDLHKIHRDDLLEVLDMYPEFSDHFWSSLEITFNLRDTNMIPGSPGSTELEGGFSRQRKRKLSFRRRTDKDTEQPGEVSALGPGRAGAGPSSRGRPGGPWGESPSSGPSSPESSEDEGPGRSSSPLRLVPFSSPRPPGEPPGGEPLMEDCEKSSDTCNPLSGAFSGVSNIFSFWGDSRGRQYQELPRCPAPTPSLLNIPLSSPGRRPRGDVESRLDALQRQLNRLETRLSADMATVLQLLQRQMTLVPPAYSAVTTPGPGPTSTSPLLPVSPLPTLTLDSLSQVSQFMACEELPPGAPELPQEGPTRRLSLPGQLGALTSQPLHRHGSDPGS

For “Hi1a (recombinant, with non-native N-terminal serine) (peptide)”, the % inhibition of hCav1.2 current, mean, 1 µM Hi1a [1] was 8.98%, the % inhibition of hCav1.2 current, n1, 1 µM Hi1a [1] was 2.79% and the % inhibition of hCav1.2 current, n2, 1 µM Hi1a [1] was 13.2%. For the same substance, the % inhibition of hCav1.2 current, n3, 1 µM Hi1a [1] was 10.9%, the % inhibition of hKCNQ1/mink current, mean, 1 µM Hi1a [2] was 0.17% and the % inhibition of hKCNQ1/mink current, n1, 1 µM Hi1a [2] was 1.87%. It also gave a % inhibition of hKCNQ1/mink current, n2, 1 µM Hi1a [2] of -0.67%, a % inhibition of hKCNQ1/mink current, n3, 1 µM Hi1a [2] of -0.68% and a % inhibition of hERG current, mean, 1 µM Hi1a [3] of -6.2%. For the same substance, the % inhibition of hERG current, n1, 1 µM Hi1a [3] was -7.5%, the % inhibition of hERG current, n2, 1 µM Hi1a [3] was 1.58% and the % inhibition of hERG current, n3, 1 µM Hi1a [3] was -12.7%. The % inhibition of hNav1.5 current, mean, 1 µM Hi1a [4] was 8.46%, the % inhibition of hNav1.5 current, n1, 1 µM Hi1a [4] was 7.31% and the % inhibition of hNav1.5 current, n2, 1 µM Hi1a [4] was 11%. It also gave a % inhibition of hNav1.5 current, n3, 1 µM Hi1a [4] of 7.1%, a % inhibition, hNav1.5 Late current antagonist assay, mean, 1 µM Hi1a [4] of -12.4% and a % inhibition, hNav1.5 Late current antagonist assay, n1, 1 µM Hi1a [4] of -9.74%. For the same substance, the % inhibition, hNav1.5 Late current antagonist assay, n2, 1 µM Hi1a [4] was -13.9% and the % inhibition, hNav1.5 Late current antagonist assay, n3, 1 µM Hi1a [4] was -13.4%.
